Test results taken from article PMC11041648.
pKd: −log10 of the molar value. Read-outs that look alike come from different tables or passages of the source.

Key:
PGT145 IgG (human) [1] = experiment: BLI; Octet Red; PGT145 IgG (8 µg/mL) loaded on anti-human IgG Fc capture biosensors; twofold dilution series of SOSIP trimer as analyte; 3 min association, 3 min dissociation; PBS pH 7.4, 0.1% BSA, 0.005% Tween 20, 0.02% NaN3; 1:1 binding model; averages of at least two independent experiments
PGT145 IgG (human) [2] = experiment: as above; remark: listed apart in the source

Sequence of PGT145 IgG (human) (heavy, as listed by the source, chain 1 of 2): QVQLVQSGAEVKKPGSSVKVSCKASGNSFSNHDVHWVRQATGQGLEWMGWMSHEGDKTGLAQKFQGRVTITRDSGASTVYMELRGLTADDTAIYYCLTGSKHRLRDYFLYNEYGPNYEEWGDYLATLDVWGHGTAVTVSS
Sequence of PGT145 IgG (human) (light, as listed by the source, chain 2 of 2): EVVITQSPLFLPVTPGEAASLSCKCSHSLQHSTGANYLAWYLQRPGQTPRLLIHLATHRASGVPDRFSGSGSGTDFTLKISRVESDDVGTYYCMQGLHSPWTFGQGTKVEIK

| Substance | pKd (PGT145 IgG (human) [1]) | koff (PGT145 IgG (human) [1]) | kon (PGT145 IgG (human) [1]) | pKd (PGT145 IgG (human) [2]) | koff (PGT145 IgG (human) [2]) | kon (PGT145 IgG (human) [2]) |
| --- | --- | --- | --- | --- | --- | --- |
| CNE8 SOSIP.664 Env trimer (complex) | 7.29 | 0.00419 s⁻¹ | 83400 M⁻¹ s⁻¹ |  |  |  |
| BJOX2000 SOSIP.664 Env trimer (complex) | 7.56 | 0.00152 s⁻¹ | 66700 M⁻¹ s⁻¹ |  |  |  |
| BG505 SOSIP.664 Env trimer (complex) | 7.80 | 0.00177 s⁻¹ | 120000 M⁻¹ s⁻¹ | 7.81 | 0.00185 s⁻¹ | 129000 M⁻¹ s⁻¹ |
